Two molecules from paper PMC7232441 (2020) can be followed below.

In the assay the target is T1, CsTx-13 (Cupiennius salei, UniProt P83919).
T1 chain 1: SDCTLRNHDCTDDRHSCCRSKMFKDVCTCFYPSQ
T1 chain 2: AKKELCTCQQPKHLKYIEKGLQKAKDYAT
Nature of the assay: microscale thermophoresis. In general terms: MST reads how a fluorescent partner responds to local heating, with and without ligand.

B1: CsTx-9 (protein)
chain: KDDKNCIPKHHECTNDKKNCCKKGLTKMKCKCFTVADAKGATSERCACDSSLLQKFGFTGLHIIKGLF
In general, Kd refers to the constant that tells how readily two partners part at equilibrium. Turning to B1, the Kd came to 370 nM.

B2: CsTx-1 (protein)
chain: SCIPKHEECTNDKHNCCRKGLFKLKCQCSTFDDESGQPTERCACGRPMGHQAIETGLNIFRGLFKGKKKNKKTK
The molecule B2 gave a Kd of 430 nM.
